Results reported in patent US20210284724A1 (I MAB BIOPHARMA US, published 2021).
Positions count from the first letter of the chain named. Values belong to the binder of their own block, whether it stands above or below them.

Experiments:
human CXCL13 [1] = target: T1, human CXCL13 (human, UniProt O43927 23-109); assay: SPR Biacore 8K, Fab over immobilised CXCL13
T1 construct: also called huCXCL13; rhCXCL13
T1 sequence (looked up): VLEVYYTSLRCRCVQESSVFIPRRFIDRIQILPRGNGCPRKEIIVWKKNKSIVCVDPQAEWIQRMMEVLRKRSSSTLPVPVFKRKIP
Protocol: Among all humanized Fab samples, 71F4A3-VH2VL1, 71F4A3-VH1VL1 (Hz71F4), 71F4A3-VH1VL2, 71F4A3-VH3VL1, 411A11E9-VH1VL4, 411A11E9-VH3VL4, 411A11E9-VH2VL4, 411A11E9-VH3VL2, 411A11E9-VH1VL2, 21H12D9-VH1VL1, 21H12D9-VH2VL2, 21H12D9-VH3VL3, 21H12D9-VH1VL2, 64C10G1-VH1VL3, 64C10G1-VH1VL4, 64C10G1-VH1VL1, 64C10G1-VH1VL2 were selected to test affinity by Biacore 8K. 10 mM HEPES, 150 mM NaCl, 3 mM EDTA, 0.05% Tween-20, pH 7.4 served as running buffer and 10 mM glycine-HCl, pH2.0 served as regeneration buffer. CXCL13 protein were immobilized on Sensor Chip CM5 using amine coupling method (immobilization level ˜250RU). The serial concentrations of Fab (0-20 nM) were injected over immobilized CXCL13 at the flow rate of 30 μl/min. The dissociation phases were 600s.

human CXCL13 [2] = target: T1, human CXCL13; assay: SPR Biacore, off-rate ranking of Fabs
human CXCL13 [3] = target: T1, human CXCL13; assay: cell-based blocking ELISA, CXCL13 to CHO-K1-CXCR5
Protocol: Splenocytes were electro-fused with mouse myeloma cell line SP2/0 cells and plated into 96-well culture plate. The hybridoma supernatants were tested by ELISA binding assay for anti-human CXCL13 binders. Supernatants of positive binding clones were screened for function in blocking of human CXCL13 binding to its […] CXCR5 by Cell-based receptor blocking ELISA assay. Briefly, 5×10⁴ CHO-K1-CXCR5 cells were plated in 96-well plate with 100 μl of culture medium and incubated at 37° C. overnight. Cells were fixed with 100 μl of 2% PFA at RT for 1 hr after washing with PBS for 1 time. Blocking was done with 1% BSA in PBST for 1 hr at RT. Supernatants were diluted with PBS and pre-incubated with equal volume of 0.3 μg/ml human CXCL13 for 30 min at RT. 100 μl of antibody-antigen complex was then transferred into each cell wells for 30 min at RT. The samples were washed with 1×PBST for 3 times and 100 μl of 3 μg/ml of human Mab5261 antibody was add into each well to capture human CXCL13 and anti-human Fc-HRP was used to indirectly detect human CXCL13 when it bound to CHO-K1-CXCR5 cells. […] Reading was done at […].
Those antibodies were purified from hybridoma supernatants by binding with Protein G column and characterized by ELISA binding assays and cell-based blocking ELISA assays. […] 11/20 clones bound to both human CXCL13 and cynomolgus CXCL13 appeared to completely block human CXCL13 to human CXCR5. 11 blockers bound to both huCXCL13 and cynoCXCL13 were produced as chimeric human IgG1 antibodies for further Characterization.

cynomolgus CXCL13 = target: T2, cynomolgus CXCL13 (cynomolgus, UniProt H6WS58 23-109); assay: ELISA, coated antigen
T2 construct: also called cynoCXCL13; Cyno CXCL13
T2 sequence: T1 sequence (looked up) with S8H, L32S, I52V, M65I, V68M, R72K, L77P

mouse CXCL13 = target: T3, mouse CXCL13 (mouse, UniProt O55038 22-109); assay: ELISA, coated antigen
T3 construct: also called rmCXCL13
T3 sequence (looked up): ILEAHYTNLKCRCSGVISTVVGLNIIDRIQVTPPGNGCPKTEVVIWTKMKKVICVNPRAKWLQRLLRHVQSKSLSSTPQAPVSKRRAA

human CXCL13 [4] = target: T1, human CXCL13; assay: ELISA, coated antigen

Kd (human CXCL13 [1]): 1.23 nM
koff (human CXCL13 [1]): 0.00203 s⁻¹
kon (human CXCL13 [1]): 1.66e+06 M⁻¹ s⁻¹
Kd (human CXCL13 [2]): 1.33 nM
koff (human CXCL13 [2]): 0.00323 s⁻¹
kon (human CXCL13 [2]): 2.42e+06 M⁻¹ s⁻¹
B1: 21H12D9-VH1VL1 (Fab, V domains shown)
VH: QVQLVQSGAEVKKPGASVKVSCKASGYTFTDYYMNWVRQAPGQGLEWMGVINPNNGGTTYKEKFKGRVTMTRDTSISTAYMELSRLRSDDTAVYYCARDDYDAGYWGQGTLVTVSS
VL: DIQMTQSPSSVSASVGDRVTITCKASQNVDTAVAWYQQKPGKAPKLLIYSASHRYTGVPSRFSGSGSGTDFTLTISSLQPEDFATYYCQQYTDFPLTFGQGTRLEIK
notes: Humanized Fab, human gamma 1 and kappa constant domains; also called 21VH12D9-VH1VL1

Kd (human CXCL13 [1]): 1.19 nM
koff (human CXCL13 [1]): 0.00171 s⁻¹
kon (human CXCL13 [1]): 1.44e+06 M⁻¹ s⁻¹
Kd (human CXCL13 [2]): 1.99 nM
koff (human CXCL13 [2]): 0.000757 s⁻¹
kon (human CXCL13 [2]): 380000 M⁻¹ s⁻¹
B2: 21H12D9-VH1VL2 (Fab, V domains shown)
VH: B1 VH
VL: B1 VL with A13T
notes: Humanized Fab, human gamma 1 and kappa constant domains; also called 21VH12D9-VH1VL2

Kd (human CXCL13 [1]): 1.22 nM
koff (human CXCL13 [1]): 0.00182 s⁻¹
kon (human CXCL13 [1]): 1.49e+06 M⁻¹ s⁻¹
Kd (human CXCL13 [2]): 1.47 nM
koff (human CXCL13 [2]): 0.00207 s⁻¹
kon (human CXCL13 [2]): 1.41e+06 M⁻¹ s⁻¹
B3: 21H12D9-VH3VL3 (Fab, V domains shown)
VH: B1 VH with K12V, M48I, V68A, M70L, R72V
VL: B1 VL with A13T, L78V
notes: Humanized Fab, human gamma 1 and kappa constant domains; also called 21VH12D9-VH3VL3

IC50 (human CXCL13 [3]): 1.14 mg/L
EC50 (cynomolgus CXCL13): 0.019 mg/L
binding result (mouse CXCL13): no binding
EC50 (human CXCL13 [4]): 0.0104 mg/L
B4: 414D10F5 (antibody, V domains shown)
VH: EVQLAESGGGLVQPGRSLKLSCSASGFTFSDYYMAWFRQAPPKGLEWVASISYDGGDSFYRDSVKGRFTISRDNAKSSLYLQMDSLRSEDTATYYCTTEEDYSGSFPDYWGQGVMVTVSS
VL: DIQMTQSPSFLSASVGDRVTINCKASQNINKYLNWYQQKLGEAPKRLIYDTNNLQAGIPSRFSGSGSGTDYTLTINSLQPEDFATYFCLQHNSLYTFGGGTKLELK
notes: Hybridoma mAb

IC50 (human CXCL13 [3]): 0.615 mg/L
EC50 (cynomolgus CXCL13): 0.0125 mg/L
binding result (mouse CXCL13): no binding
EC50 (human CXCL13 [4]): 0.0166 mg/L
B5: 329F2E1 (antibody, V domains shown)
VH: EVKLLQSGGGLVQPGGSLKLSCAASGIDFSRYWMSWVRRAPGKGLEWIGEINPDSSTINYAPSLKDKFIISRDNAKNTLYLQMSKVRSEDTALYYCARQDDYDYYAMDYWGQGTSVTVSS
VL: DIVMTQSHKFMSTSVGDRVSITCKASQDVSTGVAWYQQKPGQSPKLLIYSASYRYTGVPDRFTGSGSRTDFTFTISSVQTEDPAVYYCHQYYTIPLTFGAGTELELK
notes: Hybridoma mAb

IC50 (human CXCL13 [3]): 3.02 mg/L
EC50 (cynomolgus CXCL13): 1.01 mg/L
binding result (mouse CXCL13): no binding
EC50 (human CXCL13 [4]): 0.0266 mg/L
B6: 71F4A3 (antibody, V domains shown)
VH: B5 VH with D103E
VL: B5 VL with F10S, S30N, Q37R, R68G, T80A, P83L, H89Q, T93S, I94T, E103K
notes: Hybridoma mAb

binding result (cynomolgus CXCL13): no binding
binding result (mouse CXCL13): no binding
EC50 (human CXCL13 [4]): 0.42 mg/L
B7: 178B2E8 (antibody, V domains shown)
VH: EVKLVESEGGLVQPGSSMKLSCTASGFTFTDYYMTWVRQVPEKGLEWVANINYDGSRTNYLDSLKSRFIISRDNAKNILYLQMSSLKSEDTATYYCARDGNYHFYGMDYWGQGTSVTVSS
VL: DFVLTQSHKFMSTSVGDRVSITCKASQDVSTAVAWYQQKPGQSPQLLIYWASTRHTGVPDRFTGSGSGTDYTLTISSVQAEDLALYYCQQHYSTPWTFGGGTKLEIK
notes: Hybridoma mAb

IC50 (human CXCL13 [3]): 3.85 mg/L
binding result (cynomolgus CXCL13): no binding
EC50 (mouse CXCL13): 0.0547 mg/L
EC50 (human CXCL13 [4]): 0.0265 mg/L
B8: 430D9B3 (antibody, V domains shown)
VH: QVTLKESGPEILQPSQTLSLTCTFSGFSLSPYGMGVGWIRQPSGKGLEWLANIWWDDDKYYNPSLINRLTISKDTSNNQAFLKITNVDTTDSATYYCVRSELVMPYVPFDYWGQGVMVTVSS
VL: DIQMTQSPSSMSASLGDRVTITCQASQDIENDLIWFQQKPGKSPRPLIYYATNLANGVPSRFSGRRSESNYSLTISSLESEDMADYHCLQFKQYPYTFGAGTKLELK
notes: Hybridoma mAb

IC50 (human CXCL13 [3]): 1.1 mg/L
binding result (cynomolgus CXCL13): no binding
EC50 (mouse CXCL13): 0.0121 mg/L
EC50 (human CXCL13 [4]): 0.0109 mg/L
B9: 424H7F2 (antibody, V domains shown)
VH: B8 VH with S19T
VL: B8 VL with S72A
notes: Hybridoma mAb; also called surrogate anti-CXCL13 antibody

IC50 (human CXCL13 [3]): 8.46 mg/L
binding result (cynomolgus CXCL13): no binding
EC50 (mouse CXCL13): 1.97 mg/L
EC50 (human CXCL13 [4]): 5.84 mg/L
B10: 416C9H8 (antibody, V domains shown)
VH: B8 VH
VL: B8 VL with I34V, K42R, N70D
notes: Hybridoma mAb

IC50 (human CXCL13 [3]): 14.9 mg/L
binding result (cynomolgus CXCL13): no binding
EC50 (mouse CXCL13): 1.23 mg/L
EC50 (human CXCL13 [4]): 2.91 mg/L
B11: 445A6G7 (antibody, V domains shown)
VH: B8 VH
VL: B8 VL with E30G
notes: Hybridoma mAb
